Bridges are numbered along the chain shown (N, C = ends). Where no end group is shown, it is not given here. [ ]: non-standard residue; d: D form. The star is where a group is joined. Acetyl(2-(4-imidazolyl)) = O=C(Cc1c[nH]cn1)*; Aib = CC(C)(N)C(=O)O
T1: human GIP receptor (human, UniProt P48546 22-466)
T1 sequence (looked up): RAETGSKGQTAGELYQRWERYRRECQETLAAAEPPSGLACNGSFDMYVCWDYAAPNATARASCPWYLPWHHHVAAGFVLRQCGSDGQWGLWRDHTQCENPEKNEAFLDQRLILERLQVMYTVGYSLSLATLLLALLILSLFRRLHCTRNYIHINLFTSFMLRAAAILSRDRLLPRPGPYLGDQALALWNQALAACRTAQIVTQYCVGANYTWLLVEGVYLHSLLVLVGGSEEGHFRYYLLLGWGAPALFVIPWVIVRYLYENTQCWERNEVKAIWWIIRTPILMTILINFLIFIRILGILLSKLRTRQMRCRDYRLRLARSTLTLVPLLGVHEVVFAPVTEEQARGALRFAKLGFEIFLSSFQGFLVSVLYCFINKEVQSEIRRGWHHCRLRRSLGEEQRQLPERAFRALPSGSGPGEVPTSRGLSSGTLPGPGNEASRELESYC

B1: triple agonist of SEQ ID NO: 28 (peptide)
peptide: H[Aib]QGTFTSDYSKYLDEKRAQEFVCWLLAQKGKKNDWKHNIT
B2: triple agonist of SEQ ID NO: 27 (peptide)
peptide: H[Aib]QGTFTSDYSKYLDERACQDFVQWLLDQGGPSSGAPPPS
B3: triple agonist of SEQ ID NO: 14 (peptide)
peptide: [Acetyl(2-(4-imidazolyl))]GQGTFTSDYSIQLDEIAVRDFVEWLKNGGPSSGAPPPSHG
B4: triple agonist of SEQ ID NO: 21 (peptide)
peptide: Y[Aib]QGTFTSDYSKYLDECRAKEFVQWLLDHHPSSGQPPPS
modifications: bridge 16-20
B5: triple agonist of SEQ ID NO: 25 (peptide)
peptide: H[Aib]QGTFTSDCSKYLDERAAQDFVQWLLDGGPSSGAPPPS
B6: triple agonist of SEQ ID NO: 12 (peptide)
peptide: [Acetyl(2-(4-imidazolyl))]GEGTFISDLSKYMDEQAVQLFVEWLMAGGPSSGAPPPSHG
B7: triple agonist of SEQ ID NO: 17 (peptide)
peptide: [Acetyl(2-(4-imidazolyl))]GQGTFTSDLSKQMDEERAREFIEWLLAQKPSSGAPPPSHG
B8: triple agonist of SEQ ID NO: 18 (peptide)
peptide: [Acetyl(2-(4-imidazolyl))]GQGTFTSDLSKQMDSERAREFIEWLKNTGPSSGAPPPSHG
B9: triple agonist of SEQ ID NO: 33 (peptide)
peptide: H[Aib]QGTFTSDYSIAMDEIHQKDFVNWLLAQKC
modifications: bridge 16-20
B10: triple agonist of SEQ ID NO: 19 (peptide)
peptide: [Acetyl(2-(4-imidazolyl))]GQGTFTSDLSIQYDSEHQRDFIEWLKDTGPSSGAPPPSHG
B11: triple agonist of SEQ ID NO: 101 (peptide)
peptide: Y[Aib]QGTFTSDYSKALDEKAAKEFVNWLLDQHPSSGQPPPSC
modifications: bridge 16-20
B12: triple agonist of SEQ ID NO: 20 (peptide)
peptide: [Acetyl(2-(4-imidazolyl))]GQGTFTSDLSIQYEEEAQQDFVEWLKDTGPSSGAPPPSHG
B13: triple agonist of SEQ ID NO: 22 (peptide)
peptide: Y[Aib]QGTFTSDYSKCLDEKRAKEFVQWLLDHHPSSGQPPPS
modifications: bridge 16-20
B14: triple agonist of SEQ ID NO: 16 (peptide)
peptide: [Acetyl(2-(4-imidazolyl))]GQGTFTSDLSKQMDSEAQQLFIEWLKNGGPSSGAPPPSHG
B15: triple agonist of SEQ ID NO: 2 (peptide)
peptide: H[Aib]QGTFTSDVSSYLDGQAQKEFIAWLVKGC
B16: triple agonist of SEQ ID NO: 29 (peptide)
peptide: H[Aib]QGTFTSDYSKYLDEKAAKEFVQWLLNTC
modifications: bridge 16-20
B17: triple agonist of SEQ ID NO: 102 (peptide)
peptide: Y[Aib]QGTFTSDYSKALDEKAAKDFVNWLLDQHPSSGQPPPSC
modifications: bridge 16-20
B18: triple agonist of SEQ ID NO: 30 (peptide)
peptide: H[Aib]QGTFTSDYSKYLDEKAQKEFVQWLLDTC
modifications: bridge 16-20
B19: triple agonist of SEQ ID NO: 11 (peptide)
peptide: [Acetyl(2-(4-imidazolyl))]GEGTFTSDLSKYLDSRRQQLFVQWLKAGGPSSGAPPPSHG
B20: triple agonist of SEQ ID NO: 26 (peptide)
peptide: H[Aib]QGTFTSDCSKYLDSRAAQDFVQWLLDGGPSSGAPPPS
B21: triple agonist of SEQ ID NO: 23 (peptide)
peptide: Y[Aib]QGTFTSDYSKYLDECRAKEFVQWLLAQKGKKNDWKHNIT
modifications: bridge 16-20
B22: triple agonist of SEQ ID NO: 31 (peptide)
peptide: H[Aib]QGTFTSDYSKYLDEKACKEFVQWLLAQ
modifications: bridge 16-20
B23: triple agonist of SEQ ID NO: 3 (peptide)
peptide: H[Aib]QGTFTSDVSSYLLGQAAKQFIAWLVKGGGPSSGAPPPSC
B24: triple agonist of SEQ ID NO: 24 (peptide)
peptide: Y[Aib]QGTFTSDYSKYLDECRAKEFVQWLKNGGPSSGAPPPS
modifications: bridge 16-20
B25: triple agonist of SEQ ID NO: 32 (peptide)
peptide: H[Aib]QGTFTSDYSKYLDEKACKDFVQWLLDGGPSSGAPPPS
modifications: bridge 16-20

Tests used:
FIGURE 5 = assay: FIGURE 5
Text: Table printed on a drawing sheet, FIGURE 5

FIGURE 13 = assay: FIGURE 13
Text: Table printed on a drawing sheet, FIGURE 13
W1 means Week 1 and W12 means Week 12.
First reader's note: The first row gives the substance together with its dose (mg/kg), and each result cell holds the value with its ± deviation in the same cell.

human GCG receptor = human GCG receptor (human, UniProt P47871 26-477); assay: cell-based or functional assay
human GIP receptor = target: T1, human GIP receptor; assay: cell-based or functional assay
human GLP-1 receptor = human GLP-1 receptor (human, UniProt P43220 24-463); assay: cell-based or functional assay

Sequence of human GCG receptor (P47871 26-477): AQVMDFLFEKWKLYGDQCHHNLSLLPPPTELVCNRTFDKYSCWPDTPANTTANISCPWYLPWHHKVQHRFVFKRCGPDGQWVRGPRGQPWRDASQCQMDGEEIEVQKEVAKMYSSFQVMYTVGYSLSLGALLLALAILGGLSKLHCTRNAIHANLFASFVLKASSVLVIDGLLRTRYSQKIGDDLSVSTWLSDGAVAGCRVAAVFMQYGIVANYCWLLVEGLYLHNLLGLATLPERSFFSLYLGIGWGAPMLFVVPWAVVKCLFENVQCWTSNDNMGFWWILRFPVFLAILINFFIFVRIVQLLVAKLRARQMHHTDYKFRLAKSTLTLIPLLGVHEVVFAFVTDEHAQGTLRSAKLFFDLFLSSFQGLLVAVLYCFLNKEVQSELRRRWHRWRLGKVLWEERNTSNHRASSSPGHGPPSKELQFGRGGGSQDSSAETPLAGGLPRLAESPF

Molecule | Dose-normalized Cmax (ng/mL/mg) (FIGURE 5) | Tmax (hr) (FIGURE 5) | Cmax (FIGURE 13) [ng/mL] | Tmax (FIGURE 13) [h] | AUC0-168h (FIGURE 13) [ng·h/mL] | In vitro activity relative to native peptide (%) vs. Glucagon (human GCG receptor) [%] | In vitro activity relative to native peptide (%) vs. GIP (human GIP receptor) [%] | In vitro activity relative to native peptide (%) vs. GLP-1 (human GLP-1 receptor) [%]
LONG-ACTING CONJUGATE OF SEQ ID NO: 42 0.01 mg/kg (N=5) (Y[Aib]QGTFTSDYSKYLDEKRAKEFVQWLLDHHPSSGQPPPSC; lactam 16-20; not fully specified (residue 40); also: long-acting carrier conjugate) | 30.73 (13.34) ng/mL/mg | 31.20 (10.733) hr |  |  |  |  |  | 
LONG-ACTING CONJUGATE OF SEQ ID NO: 42 0.01 mg/kg (Y[Aib]QGTFTSDYSKYLDEKRAKEFVQWLLDHHPSSGQPPPSC; lactam 16-20; not fully specified (residue 40); also: long-acting carrier conjugate) |  |  | 31.22 ± 13.47 | 48.00 ± 12.00 |  |  |  | 
LONG-ACTING CONJUGATE OF SEQ ID NO: 42 0.02 mg/kg (Y[Aib]QGTFTSDYSKYLDEKRAKEFVQWLLDHHPSSGQPPPSC; lactam 16-20; not fully specified (residue 40); also: long-acting carrier conjugate) |  |  |  | 48.00 ± 22.22 | 11770.3 ± 7192.4 |  |  | 
B1 |  |  |  |  |  | 1.6 | < 0.1 | 17.2
B2 |  |  |  |  |  | 0.8 | 0.9 | 83.1
B3 |  |  |  |  |  | < 0.1 | < 0.1 | 28
B4 |  |  |  |  |  | 267 | 22.7 | 17.8
B5 |  |  |  |  |  | 0.1 | < 0.1 | 82.6
B6 |  |  |  |  |  | < 0.1 | < 0.1 | 0.4
B7 |  |  |  |  |  | < 0.1 | < 0.1 | 0.2
B8 |  |  |  |  |  | < 0.1 | < 0.1 | < 0.1
B9 |  |  |  |  |  | < 0.1 | 10.4 | 24.5
B10 |  |  |  |  |  | < 0.1 | < 0.1 | < 0.1
B11 |  |  |  |  |  | 13.9 | 40.1 | 23.2
B12 |  |  |  |  |  | < 0.1 | < 0.1 | < 0.1
B13 |  |  |  |  |  | 140 | 59.7 | 20.1
B14 |  |  |  |  |  | < 0.1 | < 0.1 | 2.1
B15 |  |  |  |  |  | < 0.1 | < 0.1 | 5.9
B16 |  |  |  |  |  | 6 | < 0.1 | 38.5
B17 |  |  |  |  |  | 29.5 | 58 | 23.3
B18 |  |  |  |  |  | 0.7 | 0.8 | 142
B19 |  |  |  |  |  | < 0.1 | < 0.1 | 1.4
B20 |  |  |  |  |  | 0.2 | < 0.1 | 64.5
B21 |  |  |  |  |  | 9.3 | < 0.1 | 4.01
B22 |  |  |  |  |  | 2.2 | 2.4 | 135
B23 |  |  |  |  |  | < 0.1 | < 0.1 | 1.8
B24 |  |  |  |  |  | 9.3 | < 0.1 | 41.2
B25 |  |  |  |  |  | 1.7 | 8.8 | 151

Reference: US20230302148A1, “PHARMACEUTICAL COMPOSITION COMPRISING LONG-ACTING CONJUGATE OF TRIPLE GLUCAGON/GLP-1/GIP RECEPTOR AGONIST” (HANMI PHARM. CO., LTD., priority 2020, published 2023)
